Measured values as given in patent US20250002593A1 (INMAGENE PTE, published 2025).
Blank lines part the entries; values can stand above or below the binder they belong to.

Tests used:
membrane hIL-36R [1] = molecular target: T1, membrane hIL-36R (human, UniProt Q9HB29 20-575); assay: cell-based or functional assay
T1 sequence: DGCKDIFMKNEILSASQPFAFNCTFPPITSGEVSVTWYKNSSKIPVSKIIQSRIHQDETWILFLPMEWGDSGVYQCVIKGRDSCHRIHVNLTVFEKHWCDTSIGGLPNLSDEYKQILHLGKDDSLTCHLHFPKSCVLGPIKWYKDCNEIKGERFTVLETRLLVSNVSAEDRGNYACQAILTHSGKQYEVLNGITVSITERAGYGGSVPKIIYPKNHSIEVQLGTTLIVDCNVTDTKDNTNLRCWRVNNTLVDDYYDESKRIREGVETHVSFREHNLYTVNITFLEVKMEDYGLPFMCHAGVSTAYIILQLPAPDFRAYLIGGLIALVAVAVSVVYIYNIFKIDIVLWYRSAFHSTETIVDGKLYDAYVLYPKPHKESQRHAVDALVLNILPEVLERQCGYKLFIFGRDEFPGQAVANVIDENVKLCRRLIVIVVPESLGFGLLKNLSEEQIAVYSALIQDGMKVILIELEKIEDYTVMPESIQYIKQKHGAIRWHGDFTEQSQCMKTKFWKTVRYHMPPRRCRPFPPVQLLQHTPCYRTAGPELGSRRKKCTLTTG

membrane hIL-36R [2] = molecular target: T1, membrane hIL-36R; assay: cell-based or functional assay; remark: listed apart in the source
membrane hIL-36R [3] = molecular target: T1, membrane hIL-36R; assay: flow cytometry on HEK293 cells transfected with pcDNA3.1-hIL36R, FITC anti-hIgG, MFI (median); unit taken from the x axis
membrane hIL-36R [4] = molecular target: T1, membrane hIL-36R; assay: cell-based or functional assay; remark: listed apart in the source
membrane hIL-36R [5] = molecular target: T1, membrane hIL-36R; assay: cell-based or functional assay; remark: listed apart in the source
membrane hIL-36R [6] = molecular target: T1, membrane hIL-36R; assay: cell-based or functional assay; remark: listed apart in the source
membrane hIL-36R [7] = molecular target: T1, membrane hIL-36R; assay: cell-based or functional assay; remark: listed apart in the source
[8] = molecular target: T2, Recombinant hIL-36R protein (Acrobio, Cat #IL2-H52H6) (human, UniProt Q9HB29 20-335); assay: SPR (Biacore T200, 25 C), antibody captured by Fc, hIL-36R analyte
T2 construct: Bought soluble protein; also called recombinant human IL-36R protein
T2 sequence: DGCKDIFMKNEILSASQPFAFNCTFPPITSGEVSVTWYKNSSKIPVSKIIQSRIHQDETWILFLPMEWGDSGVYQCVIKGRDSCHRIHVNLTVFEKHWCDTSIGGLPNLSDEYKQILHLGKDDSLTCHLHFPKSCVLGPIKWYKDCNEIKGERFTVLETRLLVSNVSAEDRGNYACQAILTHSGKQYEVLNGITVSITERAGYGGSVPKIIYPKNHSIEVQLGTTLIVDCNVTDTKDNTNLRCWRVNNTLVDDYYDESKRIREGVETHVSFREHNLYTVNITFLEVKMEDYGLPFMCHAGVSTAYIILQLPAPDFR

[9] = molecular target: T3, Recombinant hIL1R1 protein (human, UniProt P14778 18-332, limits assumed); assay: ELISA on coated recombinant hIL1R1 protein, detection with HRP anti-hIgG
T3 sequence (looked up): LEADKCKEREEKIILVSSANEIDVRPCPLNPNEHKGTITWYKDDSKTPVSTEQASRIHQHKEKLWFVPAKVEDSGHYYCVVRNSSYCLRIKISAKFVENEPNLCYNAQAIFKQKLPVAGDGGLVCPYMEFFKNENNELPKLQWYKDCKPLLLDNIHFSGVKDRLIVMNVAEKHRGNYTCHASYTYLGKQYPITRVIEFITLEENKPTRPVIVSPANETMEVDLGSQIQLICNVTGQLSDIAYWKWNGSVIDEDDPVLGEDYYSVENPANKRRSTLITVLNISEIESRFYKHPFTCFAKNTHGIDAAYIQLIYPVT

recombinant hIL-36R-his = molecular target: T4, recombinant hIL-36R-his (human, UniProt Q9HB29 20-337); assay: ELISA on coated recombinant hIL36R protein (1 µg/ml), detection with HRP anti-hIgG; unit taken from the x axis Ab(µg/mL)
T4 construct: Residues 1-337 (extracellular domain) are stated for the IL-36R-his used as immunogen; The range includes the signal peptide; no cleavage site is stated; also called recombinant hIL36R protein; recombinant human IL-36R-his protein; not shown: His tag
T4 sequence: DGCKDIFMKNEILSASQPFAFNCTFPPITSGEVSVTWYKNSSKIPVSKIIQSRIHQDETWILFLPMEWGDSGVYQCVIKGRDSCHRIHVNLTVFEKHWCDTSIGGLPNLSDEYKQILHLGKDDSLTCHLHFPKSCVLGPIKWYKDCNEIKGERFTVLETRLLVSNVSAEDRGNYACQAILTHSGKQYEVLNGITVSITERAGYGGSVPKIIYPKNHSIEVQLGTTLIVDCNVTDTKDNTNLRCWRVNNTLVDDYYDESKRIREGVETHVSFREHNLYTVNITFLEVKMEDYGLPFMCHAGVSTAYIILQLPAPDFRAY

[10] = molecular target: T2, Recombinant hIL-36R protein (Acrobio, …); assay: BLI (Gator), antibody on Protein A sensor, hIL-36R analyte
[11] = molecular target: T2, Recombinant hIL-36R protein (Acrobio, …); assay: BLI (Gator), antibody on Protein A sensor, hIL-36R analyte; column head prints kon(1/s)
membrane hIL-36R [12] = molecular target: T1, membrane hIL-36R; assay: cell-based or functional assay; remark: listed apart in the source
membrane hIL-36R [13] = molecular target: T1, membrane hIL-36R; assay: cell-based or functional assay; remark: listed apart in the source
[14] = molecular target: T2, Recombinant hIL-36R protein (Acrobio, …); assay: BLI (Gator), antibody on Protein A sensor, hIL-36R analyte; column head prints koff(1/Ms)
membrane hIL-36R [15] = molecular target: T1, membrane hIL-36R; assay: cell-based or functional assay; remark: listed apart in the source

IC50, inhibition of IL-36α induced IL-8 release in primary human dermal fibroblast (HDF) cells (IL-8 ELISA, OD450) (membrane hIL-36R [1]): 0.106 µg/mL
IC50, IL-36R reporter assay: inhibition of ligand induced luminescence in Jurkat-IL36R-IL1Racp-NFkB-luc cells (membrane hIL-36R [2]): 0.0324 µg/mL
EC50 (membrane hIL-36R [3]): 0.119 µg/mL
IC50, inhibition of IL-36γ induced IL-6 release in primary human epithelial keratinocytes (HEK cells) [panel IL-6] (membrane hIL-36R [4]): 0.159 µg/mL
IC50, inhibition of IL-36γ induced IL-8 release in primary human epithelial keratinocytes (HEK cells) [panel IL-8] (membrane hIL-36R [4]): 0.187 µg/mL
IC50, inhibition of IL-36γ induced TNF-α release in primary human epithelial keratinocytes (HEK cells) [panel TNF-α] (membrane hIL-36R [4]): 0.0726 µg/mL
IC50, inhibition of IL-36α induced IL-8 release in A431 cells (IL-8 ELISA, OD450) [panel IL-36α] (membrane hIL-36R [5]): 1.58 µg/mL
IC50, inhibition of IL-36β induced IL-8 release in A431 cells (IL-8 ELISA, OD450) [panel IL-36β] (membrane hIL-36R [5]): 0.496 µg/mL
IC50, inhibition of IL-36γ induced IL-8 release in A431 cells (IL-8 ELISA, OD450) [panel IL-36γ] (membrane hIL-36R [5]): 0.0474 µg/mL
IC50, inhibition of IL-36α induced IL-6 release in primary human epithelial keratinocytes (HEK cells) [panel IL-6] (membrane hIL-36R [6]): 1.35 µg/mL
IC50, inhibition of IL-36α induced IL-8 release in primary human epithelial keratinocytes (HEK cells) [panel IL-8] (membrane hIL-36R [6]): 1.15 µg/mL
IC50, inhibition of IL-36α induced TNF-α release in primary human epithelial keratinocytes (HEK cells) [panel TNF-α] (membrane hIL-36R [6]): 0.266 µg/mL
IC50, inhibition of IL-36β induced IL-6 release in primary human epithelial keratinocytes (HEK cells) [panel IL-6] (membrane hIL-36R [7]): 0.094 µg/mL
IC50, inhibition of IL-36β induced IL-8 release in primary human epithelial keratinocytes (HEK cells) [panel IL-8] (membrane hIL-36R [7]): 0.35 µg/mL
IC50, inhibition of IL-36β induced TNF-α release in primary human epithelial keratinocytes (HEK cells) [panel TNF-α] (membrane hIL-36R [7]): 0.0577 µg/mL
Kd [8]: 13.2 nM
koff [8]: 0.000444 s⁻¹
kon [8]: 33500 M⁻¹ s⁻¹
binding result [9]: no binding (tested: 1 µg/mL)
EC50 (recombinant hIL-36R-his): 0.0228 µg/mL
B1: ANB019 (antibody, V domains shown)
VH: QVQLVQSGAEVKKPGASVKVSCKASGYTFTNYWMNWVRQAPRQGLEWMGMFHPTGDVTRLNQKFKDRVTMTRDTSTSTVYMELSSLRSEDTAVYYCARTTSMIIGGFAYWGQGTLVTVSS
VL: DIVMTQTPLSLSVTPGQPASISCRSSKSLLHRNAITYFYWYLHKPGQPPQLLIYQMSNLASGVPDRFSGSGSGTDFTLKISRVEAEDVGVYYCAQNLELPLTFGGGTKVEIK
notes: also called benchmark antibody

IC50, IL-36R reporter assay: inhibition of IL-36α induced luminescence in Jurkat-IL36R-IL1Racp-NFkB-luc cells (printed REGN-14) (membrane hIL-36R [15]): 0.0839 nM
IC50, inhibition of IL-36α induced IL-8 release in primary human dermal fibroblast (HDF) cells (IL-8 ELISA, OD450) (membrane hIL-36R [1]): 0.0877 µg/mL
EC50 (membrane hIL-36R [3]): 0.0582 µg/mL
IC50, IL-36R reporter assay: inhibition of ligand induced luminescence in Jurkat-IL36R-IL1Racp-NFkB-luc cells (printed REGN-14) (membrane hIL-36R [13]): 0.169 µg/mL
IC50, inhibition of IL-36γ induced IL-6 release in primary human epithelial keratinocytes (HEK cells) [panel IL-6] (membrane hIL-36R [4]): 0.148 µg/mL
IC50, inhibition of IL-36γ induced IL-8 release in primary human epithelial keratinocytes (HEK cells) [panel IL-8] (membrane hIL-36R [4]): 0.114 µg/mL
IC50, inhibition of IL-36γ induced TNF-α release in primary human epithelial keratinocytes (HEK cells) [panel TNF-α] (membrane hIL-36R [4]): 0.0347 µg/mL
IC50, inhibition of IL-36α induced IL-8 release in A431 cells (IL-8 ELISA, OD450) [panel IL-36α] (membrane hIL-36R [5]): 2.29 µg/mL
IC50, inhibition of IL-36β induced IL-8 release in A431 cells (IL-8 ELISA, OD450) [panel IL-36β] (membrane hIL-36R [5]): 1.02 µg/mL
IC50, inhibition of IL-36γ induced IL-8 release in A431 cells (IL-8 ELISA, OD450) [panel IL-36γ] (membrane hIL-36R [5]): 0.0627 µg/mL
IC50, inhibition of IL-36α induced IL-6 release in primary human epithelial keratinocytes (HEK cells) [panel IL-6] (membrane hIL-36R [6]): 1.73 µg/mL
IC50, inhibition of IL-36α induced IL-8 release in primary human epithelial keratinocytes (HEK cells) [panel IL-8] (membrane hIL-36R [6]): 1.47 µg/mL
IC50, inhibition of IL-36α induced TNF-α release in primary human epithelial keratinocytes (HEK cells) [panel TNF-α] (membrane hIL-36R [6]): 0.353 µg/mL
IC50, inhibition of IL-36β induced IL-6 release in primary human epithelial keratinocytes (HEK cells) [panel IL-6] (membrane hIL-36R [7]): 0.0225 µg/mL
IC50, inhibition of IL-36β induced IL-8 release in primary human epithelial keratinocytes (HEK cells) [panel IL-8] (membrane hIL-36R [7]): 0.253 µg/mL
IC50, inhibition of IL-36β induced TNF-α release in primary human epithelial keratinocytes (HEK cells) [panel TNF-α] (membrane hIL-36R [7]): 0.0298 µg/mL
Kd [8]: 3.74 nM
koff [8]: 0.000283 s⁻¹
kon [8]: 75600 M⁻¹ s⁻¹
binding result [9]: no binding (tested: 1 µg/mL)
EC50 (recombinant hIL-36R-his): 0.0106 µg/mL
B3: REGN14 (antibody, V domains shown)
VH: EVQLVESGGDLVQPGRSLRLSCAASGFTFDDYAMHWVRQAPGKGLEWVSVISWNSDVIAYSDSVKGRFTISRDNAKNSLYLQMNSLRTEDTALYYCTKGHKWSFFDYWGQGTLVTVSS
VL: EIVLTQSPATLSLSPGERATLSCRASQSISSYLAWYQQKPGQAPRLLIFNVANRATDIPARFSGSGSGTDFTLTISSLEPEDFAVYYCQQRSNWPLTFGGGTKVEIK
notes: as for B1

More lines, now with the values behind:

B2: 5F7 (antibody, V domains shown)
VH: EVKLVESGGGLVQPGGSLSLSCAASGFAFTDYYMNWVRQPPGKALEWLALIRNKAAGYTIYYSASVKGRFTISRDNSQSILYLQMTALRPEDSATYYCVRDMTIYDGYYVDYALDYWGQGTSVTVSS
VL: DIQMNQSPSSLSASLGDTITITCRASQNINIWLSWYQQKPGNIPKLFIYKASNLHTGVPSRFSGSGSGTDFTLTISSLQPEDIATYYCQQSQSYPLTFGAGTKLELK
notes: Mouse variable regions; also called chimeric antibody 5F7; 5F7 original molecular
Kd [10]: 14.6 nM
kon [11]: 59100 M⁻¹ s⁻¹
IC50, IL-36α induced IL-36R signaling (IL36R reporter assay, luciferase) (membrane hIL-36R [12]): 0.448 nM
IC50, IL-36R reporter assay: inhibition of ligand induced luminescence in Jurkat-IL36R-IL1Racp-NFkB-luc cells (column printed '5F7-mus', taken as the '5F7 original molecular' of paragraph 330) (membrane hIL-36R [13]): 0.226 µg/mL
koff [14]: 0.000861 s⁻¹

B4: 9A6 (antibody, V domains shown)
VH: QVQLQQSGPGLMAPSQSLSITCTVSGFSLTSYDVSWIRQSPGKGLEWLGVIWTGGGTDYNSAFMSRLSITKDNSKSQVFLKMSSLQTDDTAIYYCVRVYYDPYYAMDYWGQGTSVTVSS
VL: DIVLTQSPAIMSASPGEKVTMTCSASSSVSSRYLHWYQQKSGASPKLWIYGTSNLASGVPARFSGSGSGTSYSLTISSVEAEDAATYYCQQYHSDPLTFGAGTKLELK
notes: Mouse variable regions; also called chimeric antibody 9A6
Kd [10]: 0.0205 nM
kon [11]: 39700 M⁻¹ s⁻¹
IC50, IL-36α induced IL-36R signaling (IL36R reporter assay, luciferase) (membrane hIL-36R [12]): 0.312 nM
koff [14]: 8.14e-07 s⁻¹
